IntAct's records for PubMed 25910212

B1: Adenosylhomocysteinase (Homo sapiens), P23526 (parent)
chain: MSDKLPYKVADIGLAAWGRKALDIAENEMPGLMRMRERYSASKPLKGARIAGCLHMTVETAVLIETLVTLGAEVQWSSCNIFSTQDHAAAAIAKAGIPVYAWKGETDEEYLWCIEQTLYFKDGPLNMILDDGGDLTNLIHTKYPQLLPGIRGISEETTTGVHNLYKMMANGILKVPAINVNDSVTKSKFDNLYGCRESLIDGIKRATDVMIAGKVAVVAGYGDVGKGCAQALRGFGARVIITEIDPINALQAAMEGYEVTTMDEACQEGNIFVTTTGCIDIILGRHFEQMKDDAIVCNIGHFDVEIDVKWLNENAVEKVNIKPQVDRYRLKNGRRIILLAEGRLVNLGCAMGHPSFVMSNSFTNQVMAQIELWTHPDKYPVGVHFLPKKLDEAVAEAHLGKLNVKLTKLTEKQAQYLGMSCDGPFKPDHYRY
B2: Keratin, type II cytoskeletal 2 epidermal (Homo sapiens), P35908 (parent)
chain: MSCQISCKSRGRGGGGGGFRGFSSGSAVVSGGSRRSTSSFSCLSRHGGGGGGFGGGGFGSRSLVGLGGTKSISISVAGGGGGFGAAGGFGGRGGGFGGGSSFGGGSGFSGGGFGGGGFGGGRFGGFGGPGGVGGLGGPGGFGPGGYPGGIHEVSVNQSLLQPLNVKVDPEIQNVKAQEREQIKTLNNKFASFIDKVRFLEQQNQVLQTKWELLQQMNVGTRPINLEPIFQGYIDSLKRYLDGLTAERTSQNSELNNMQDLVEDYKKKYEDEINKRTAAENDFVTLKKDVDNAYMIKVELQSKVDLLNQEIEFLKVLYDAEISQIHQSVTDTNVILSMDNSRNLDLDSIIAEVKAQYEEIAQRSKEEAEALYHSKYEELQVTVGRHGDSLKEIKIEISELNRVIQRLQGEIAHVKKQCKNVQDAIADAEQRGEHALKDARNKLNDLEEALQQAKEDLARLLRDYQELMNVKLALDVEIATYRKLLEGEECRMSGDLSSNVTVSVTSSTISSNVASKAAFGGSGGRGSSSGGGYSSGSSSYGSGGRQSGSRGGSGGGGSISGGGYGSGGGSGGRYGSGGGSKGGSISGGGYGSGGGKHSSGGGSRGGSSSGGGYGSGGGGSSSVKGSSGEAFGSSVTFSFR
B3: Keratin, type II cytoskeletal 6A (Homo sapiens), P02538 (parent)
chain: MASTSTTIRSHSSSRRGFSANSARLPGVSRSGFSSVSVSRSRGSGGLGGACGGAGFGSRSLYGLGGSKRISIGGGSCAISGGYGSRAGGSYGFGGAGSGFGFGGGAGIGFGLGGGAGLAGGFGGPGFPVCPPGGIQEVTVNQSLLTPLNLQIDPTIQRVRAEEREQIKTLNNKFASFIDKVRFLEQQNKVLETKWTLLQEQGTKTVRQNLEPLFEQYINNLRRQLDSIVGERGRLDSELRGMQDLVEDFKNKYEDEINKRTAAENEFVTLKKDVDAAYMNKVELQAKADTLTDEINFLRALYDAELSQMQTHISDTSVVLSMDNNRNLDLDSIIAEVKAQYEEIAQRSRAEAESWYQTKYEELQVTAGRHGDDLRNTKQEIAEINRMIQRLRSEIDHVKKQCANLQAAIADAEQRGEMALKDAKNKLEGLEDALQKAKQDLARLLKEYQELMNVKLALDVEIATYRKLLEGEECRLNGEGVGQVNISVVQSTVSSGYGGASGVGSGLGLGGGSSYSYGSGLGVGGGFSSSSGRAIGGGLSSVGGGSSTIKYTTTSSSSRKSYKH

Variants of: B1
Details: with ca050_human C1orf50, Q9BV19
Chain of ca050_human C1orf50, Q9BV19 (Q9BV19 whole entry): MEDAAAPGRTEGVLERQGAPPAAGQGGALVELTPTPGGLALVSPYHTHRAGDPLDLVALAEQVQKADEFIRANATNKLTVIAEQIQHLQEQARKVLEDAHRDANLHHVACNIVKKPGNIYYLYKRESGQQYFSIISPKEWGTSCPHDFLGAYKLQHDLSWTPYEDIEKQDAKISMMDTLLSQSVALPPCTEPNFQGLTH

Variant	effect of a mutation on the interaction
Y143C	with no effect

Variants of: B2
Details: with KRT15, P19012
Target sequence in this assay (P19012 whole entry): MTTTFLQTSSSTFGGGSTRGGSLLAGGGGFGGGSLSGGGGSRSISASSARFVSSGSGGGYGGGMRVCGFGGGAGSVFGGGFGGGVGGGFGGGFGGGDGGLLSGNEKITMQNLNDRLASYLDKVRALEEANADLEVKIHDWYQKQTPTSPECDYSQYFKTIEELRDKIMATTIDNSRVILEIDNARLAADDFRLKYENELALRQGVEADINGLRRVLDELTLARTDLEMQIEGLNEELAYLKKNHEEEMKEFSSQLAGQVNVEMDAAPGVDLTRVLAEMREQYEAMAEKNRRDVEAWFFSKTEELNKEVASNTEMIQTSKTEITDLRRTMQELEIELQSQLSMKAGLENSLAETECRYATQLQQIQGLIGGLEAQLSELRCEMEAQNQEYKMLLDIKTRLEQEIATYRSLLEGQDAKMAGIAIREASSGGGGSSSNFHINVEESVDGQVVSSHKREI

Variant	effect of a mutation on the interaction
N186K	with no effect
I477N	with no effect
L484P	with no effect

Variants of: B2
Details: with KRT40, Q6A162
Target sequence in this assay (Q6A162 whole entry): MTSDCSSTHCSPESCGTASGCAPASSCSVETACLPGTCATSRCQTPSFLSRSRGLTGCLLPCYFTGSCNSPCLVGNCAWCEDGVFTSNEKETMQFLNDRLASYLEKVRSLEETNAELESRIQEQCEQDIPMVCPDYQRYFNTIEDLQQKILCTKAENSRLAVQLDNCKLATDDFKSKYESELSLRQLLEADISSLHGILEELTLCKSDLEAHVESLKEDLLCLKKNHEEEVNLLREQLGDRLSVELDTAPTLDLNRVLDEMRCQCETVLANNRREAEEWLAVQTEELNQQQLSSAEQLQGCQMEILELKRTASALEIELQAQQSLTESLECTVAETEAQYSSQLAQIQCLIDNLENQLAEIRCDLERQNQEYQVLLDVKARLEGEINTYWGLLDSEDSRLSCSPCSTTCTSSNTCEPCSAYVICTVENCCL

Variant	effect of a mutation on the interaction
N186K	with no effect
I477N	disrupting interaction strength
L484P	with no effect

Variants of: B2
Details: with k1h1_human KRT31, Q15323
Target sequence in this assay (Q15323 whole entry): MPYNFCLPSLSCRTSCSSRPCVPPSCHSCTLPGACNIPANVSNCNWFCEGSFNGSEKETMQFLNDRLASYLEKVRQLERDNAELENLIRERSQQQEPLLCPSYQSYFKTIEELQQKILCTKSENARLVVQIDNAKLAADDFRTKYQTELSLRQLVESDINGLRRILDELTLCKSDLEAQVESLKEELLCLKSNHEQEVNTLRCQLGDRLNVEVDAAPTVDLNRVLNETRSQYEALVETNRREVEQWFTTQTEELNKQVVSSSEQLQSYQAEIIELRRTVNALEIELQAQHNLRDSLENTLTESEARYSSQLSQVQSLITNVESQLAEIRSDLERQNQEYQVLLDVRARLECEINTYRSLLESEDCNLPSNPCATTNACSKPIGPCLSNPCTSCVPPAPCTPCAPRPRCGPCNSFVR

Variant	effect of a mutation on the interaction
N186K	with no effect
I477N	disrupting interaction strength
L484P	disrupting interaction strength

Variants of: B2
Details: with KRT19, P08727
Chain of KRT19, P08727 (P08727 whole entry): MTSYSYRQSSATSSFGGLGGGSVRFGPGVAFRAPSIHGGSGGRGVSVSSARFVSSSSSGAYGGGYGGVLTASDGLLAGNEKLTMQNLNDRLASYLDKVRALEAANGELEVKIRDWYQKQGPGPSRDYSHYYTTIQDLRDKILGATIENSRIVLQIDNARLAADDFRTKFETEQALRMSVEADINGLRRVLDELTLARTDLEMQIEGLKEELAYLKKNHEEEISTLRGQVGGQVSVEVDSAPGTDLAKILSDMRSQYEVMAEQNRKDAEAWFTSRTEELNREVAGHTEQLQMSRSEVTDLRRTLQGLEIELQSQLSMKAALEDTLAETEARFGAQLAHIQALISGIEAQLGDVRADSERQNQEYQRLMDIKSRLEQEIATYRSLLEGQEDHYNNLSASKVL

Variant	effect of a mutation on the interaction
N186K	with no effect
I477N	disrupting interaction strength
L484P	with no effect
G219D	with no effect

Variants of: B2
Details: with k1h1_human KRT31, Q15323
Remark: another data set of the same source
Target sequence in this assay (Q15323 whole entry): as the sequence (Q15323 whole entry) above

Variant	effect of a mutation on the interaction
I477N	with no effect
L484P	with no effect
G219D	with no effect

Variants of: B2
Details: with KRT40, Q6A162
Remark: another data set of the same source
Target sequence in this assay (Q6A162 whole entry): as the sequence (Q6A162 whole entry) above

Variant	effect of a mutation on the interaction
L484P	disrupting interaction strength
G219D	with no effect

Variants of: B2
Details: with KRT15, P19012
Remark: another data set of the same source
Target sequence in this assay (P19012 whole entry): as the sequence (P19012 whole entry) above

Variant	effect of a mutation on the interaction
G219D	with no effect

Variants of: B3
Details: with KRT15, P19012
Target sequence in this assay (P19012 whole entry): as above

Variant	effect of a mutation on the interaction
MASTSTTIRSHSSSRRGFSANSARLPGVSRSGFSSVSVSRSRGSGGLGGACGGAGFGSRSLYGLGGSKRISIGGGSCAISGGYGSRAGGSYGFGGAGSGFGFGGGAGIGFGLGGGAGLAGGFGGPGFPVCPPGGIQEVTVNQSLLTPLNLQIDPTIQRVRAEEREQIKTLKNKFASFIDKVRFLEQQNKVLETKWTLLQEQGTKTVRQNLEPLFEQYINNLRRQLDSIVGERGRLDSELRGMQDLVEDFKNKYEDEINKRTAAENEFVTLKKDVDAAYMNKVELQAKADTLTDEINFLRALYDAELSQMQTHISDTSVVLSMDNNRNLDLDSIIAEVKAQYEEIAQRSRAEAESWYQTKYEELQVTAGRHGDDLRNTKQEIAEINRMIQRLRSEIDHVKKQCANLQAAIADAEQRGEMALKDAKNKLEGLEDALQKAKQDLARLLKEYQELMNVKLALDVEIATYRKLLEGEECRLNGEGVGQVNISVVQSTVSSGYGGASGVGSGLGLGGGSSYSYGSGLGVGGGFSSSSGRAIGGGLSSVGGGSSTIKYTTTSSSSRKSYKH [N171K]	with no effect

Variants of: B3
Details: with KRT40, Q6A162
Target sequence in this assay (Q6A162 whole entry): as the sequence (Q6A162 whole entry) above

Variant	effect of a mutation on the interaction
MASTSTTIRSHSSSRRGFSANSARLPGVSRSGFSSVSVSRSRGSGGLGGACGGAGFGSRSLYGLGGSKRISIGGGSCAISGGYGSRAGGSYGFGGAGSGFGFGGGAGIGFGLGGGAGLAGGFGGPGFPVCPPGGIQEVTVNQSLLTPLNLQIDPTIQRVRAEEREQIKTLKNKFASFIDKVRFLEQQNKVLETKWTLLQEQGTKTVRQNLEPLFEQYINNLRRQLDSIVGERGRLDSELRGMQDLVEDFKNKYEDEINKRTAAENEFVTLKKDVDAAYMNKVELQAKADTLTDEINFLRALYDAELSQMQTHISDTSVVLSMDNNRNLDLDSIIAEVKAQYEEIAQRSRAEAESWYQTKYEELQVTAGRHGDDLRNTKQEIAEINRMIQRLRSEIDHVKKQCANLQAAIADAEQRGEMALKDAKNKLEGLEDALQKAKQDLARLLKEYQELMNVKLALDVEIATYRKLLEGEECRLNGEGVGQVNISVVQSTVSSGYGGASGVGSGLGLGGGSSYSYGSGLGVGGGFSSSSGRAIGGGLSSVGGGSSTIKYTTTSSSSRKSYKH [N171K]	with no effect

Variants of: B3
Details: with k1h1_human KRT31, Q15323
Target sequence in this assay (Q15323 whole entry): as the sequence (Q15323 whole entry) above

Variant	effect of a mutation on the interaction
MASTSTTIRSHSSSRRGFSANSARLPGVSRSGFSSVSVSRSRGSGGLGGACGGAGFGSRSLYGLGGSKRISIGGGSCAISGGYGSRAGGSYGFGGAGSGFGFGGGAGIGFGLGGGAGLAGGFGGPGFPVCPPGGIQEVTVNQSLLTPLNLQIDPTIQRVRAEEREQIKTLKNKFASFIDKVRFLEQQNKVLETKWTLLQEQGTKTVRQNLEPLFEQYINNLRRQLDSIVGERGRLDSELRGMQDLVEDFKNKYEDEINKRTAAENEFVTLKKDVDAAYMNKVELQAKADTLTDEINFLRALYDAELSQMQTHISDTSVVLSMDNNRNLDLDSIIAEVKAQYEEIAQRSRAEAESWYQTKYEELQVTAGRHGDDLRNTKQEIAEINRMIQRLRSEIDHVKKQCANLQAAIADAEQRGEMALKDAKNKLEGLEDALQKAKQDLARLLKEYQELMNVKLALDVEIATYRKLLEGEECRLNGEGVGQVNISVVQSTVSSGYGGASGVGSGLGLGGGSSYSYGSGLGVGGGFSSSSGRAIGGGLSSVGGGSSTIKYTTTSSSSRKSYKH [N171K]	with no effect

Variants of: B3
Details: with tfp11_human TFIP11, Q9UBB9
Chain of tfp11_human TFIP11, Q9UBB9 (Q9UBB9 whole entry): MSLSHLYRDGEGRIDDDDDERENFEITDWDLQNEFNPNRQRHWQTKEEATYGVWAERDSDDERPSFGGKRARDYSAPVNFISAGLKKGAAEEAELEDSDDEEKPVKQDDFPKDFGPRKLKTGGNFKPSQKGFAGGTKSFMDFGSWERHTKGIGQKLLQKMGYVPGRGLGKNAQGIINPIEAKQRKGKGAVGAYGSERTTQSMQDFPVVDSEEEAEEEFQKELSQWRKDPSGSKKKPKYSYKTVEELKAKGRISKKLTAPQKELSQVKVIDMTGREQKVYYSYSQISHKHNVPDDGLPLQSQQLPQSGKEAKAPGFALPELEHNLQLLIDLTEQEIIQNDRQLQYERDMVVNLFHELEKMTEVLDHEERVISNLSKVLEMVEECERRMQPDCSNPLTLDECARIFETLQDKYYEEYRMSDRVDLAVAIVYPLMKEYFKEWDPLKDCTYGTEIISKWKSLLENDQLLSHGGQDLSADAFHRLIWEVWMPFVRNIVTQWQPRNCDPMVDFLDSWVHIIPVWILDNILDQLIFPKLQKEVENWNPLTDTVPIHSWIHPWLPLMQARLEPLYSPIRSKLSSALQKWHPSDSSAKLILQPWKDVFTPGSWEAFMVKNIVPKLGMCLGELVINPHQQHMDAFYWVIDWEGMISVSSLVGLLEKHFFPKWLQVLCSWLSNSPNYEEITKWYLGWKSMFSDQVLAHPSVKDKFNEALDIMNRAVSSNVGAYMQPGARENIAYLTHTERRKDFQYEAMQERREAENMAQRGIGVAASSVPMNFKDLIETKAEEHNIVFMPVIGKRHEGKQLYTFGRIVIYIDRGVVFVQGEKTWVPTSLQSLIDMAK

Variant	effect of a mutation on the interaction
MASTSTTIRSHSSSRRGFSANSARLPGVSRSGFSSVSVSRSRGSGGLGGACGGAGFGSRSLYGLGGSKRISIGGGSCAISGGYGSRAGGSYGFGGAGSGFGFGGGAGIGFGLGGGAGLAGGFGGPGFPVCPPGGIQEVTVNQSLLTPLNLQIDPTIQRVRAEEREQIKTLKNKFASFIDKVRFLEQQNKVLETKWTLLQEQGTKTVRQNLEPLFEQYINNLRRQLDSIVGERGRLDSELRGMQDLVEDFKNKYEDEINKRTAAENEFVTLKKDVDAAYMNKVELQAKADTLTDEINFLRALYDAELSQMQTHISDTSVVLSMDNNRNLDLDSIIAEVKAQYEEIAQRSRAEAESWYQTKYEELQVTAGRHGDDLRNTKQEIAEINRMIQRLRSEIDHVKKQCANLQAAIADAEQRGEMALKDAKNKLEGLEDALQKAKQDLARLLKEYQELMNVKLALDVEIATYRKLLEGEECRLNGEGVGQVNISVVQSTVSSGYGGASGVGSGLGLGGGSSYSYGSGLGVGGGFSSSSGRAIGGGLSSVGGGSSTIKYTTTSSSSRKSYKH [N171K]	with no effect

Variants of: B3
Details: with goga2_human GOLGA2, Q08379
Chain of goga2_human GOLGA2, Q08379 (Q08379 whole entry): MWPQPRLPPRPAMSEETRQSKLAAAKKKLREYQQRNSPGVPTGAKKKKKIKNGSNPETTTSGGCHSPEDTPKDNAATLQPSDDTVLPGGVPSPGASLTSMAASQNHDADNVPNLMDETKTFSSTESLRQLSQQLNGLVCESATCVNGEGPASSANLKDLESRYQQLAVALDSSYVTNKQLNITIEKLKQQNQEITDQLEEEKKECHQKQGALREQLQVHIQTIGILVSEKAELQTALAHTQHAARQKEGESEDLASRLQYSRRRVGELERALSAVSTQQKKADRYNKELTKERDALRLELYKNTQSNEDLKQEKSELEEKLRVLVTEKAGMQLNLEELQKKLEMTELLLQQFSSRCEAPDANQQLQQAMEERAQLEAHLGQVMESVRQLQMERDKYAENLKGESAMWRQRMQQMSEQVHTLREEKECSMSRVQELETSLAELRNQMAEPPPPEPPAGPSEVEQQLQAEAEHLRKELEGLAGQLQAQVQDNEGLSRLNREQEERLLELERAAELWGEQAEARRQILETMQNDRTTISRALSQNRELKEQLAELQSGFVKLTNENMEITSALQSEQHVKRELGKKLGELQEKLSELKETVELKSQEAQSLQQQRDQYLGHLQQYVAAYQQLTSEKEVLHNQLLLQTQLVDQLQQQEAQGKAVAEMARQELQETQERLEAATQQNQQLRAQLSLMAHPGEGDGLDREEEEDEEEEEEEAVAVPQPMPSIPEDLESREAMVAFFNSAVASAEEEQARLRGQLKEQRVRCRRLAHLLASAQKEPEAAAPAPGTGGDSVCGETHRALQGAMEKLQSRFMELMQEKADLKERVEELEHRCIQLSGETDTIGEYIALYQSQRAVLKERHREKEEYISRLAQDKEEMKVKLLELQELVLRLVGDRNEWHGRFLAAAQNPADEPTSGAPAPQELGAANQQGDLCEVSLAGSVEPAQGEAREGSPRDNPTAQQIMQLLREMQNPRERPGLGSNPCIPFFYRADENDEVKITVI

Variant	effect of a mutation on the interaction
MASTSTTIRSHSSSRRGFSANSARLPGVSRSGFSSVSVSRSRGSGGLGGACGGAGFGSRSLYGLGGSKRISIGGGSCAISGGYGSRAGGSYGFGGAGSGFGFGGGAGIGFGLGGGAGLAGGFGGPGFPVCPPGGIQEVTVNQSLLTPLNLQIDPTIQRVRAEEREQIKTLKNKFASFIDKVRFLEQQNKVLETKWTLLQEQGTKTVRQNLEPLFEQYINNLRRQLDSIVGERGRLDSELRGMQDLVEDFKNKYEDEINKRTAAENEFVTLKKDVDAAYMNKVELQAKADTLTDEINFLRALYDAELSQMQTHISDTSVVLSMDNNRNLDLDSIIAEVKAQYEEIAQRSRAEAESWYQTKYEELQVTAGRHGDDLRNTKQEIAEINRMIQRLRSEIDHVKKQCANLQAAIADAEQRGEMALKDAKNKLEGLEDALQKAKQDLARLLKEYQELMNVKLALDVEIATYRKLLEGEECRLNGEGVGQVNISVVQSTVSSGYGGASGVGSGLGLGGGSSYSYGSGLGVGGGFSSSSGRAIGGGLSSVGGGSSTIKYTTTSSSSRKSYKH [N171K]	disrupting interaction strength
